Test results as given in US20230066984A1, “New Carbon Glycoside Glycosyltransferase and Use Thereof” (CAS Center for Excellence in Molecular Plant Sciences, priority 2020, published 2023).

Columns and labels:
[1] = In vitro functional identification of C-glycosyltransferases by HPLC, phloretin as glycosyl receptor; format: biochemical; conditions: 0.1 mM phloretin, 0.3 mM UDP glucose, crude enzyme, 37° C., 2 h, HPLC (FIG. 1A)
Protocol: The recombinant plasmid was transformed into competent cells of Escherichia coli BL21 (DE3), and cultured overnight at 37° C. in solid LB medium (kanamycin 50 μg/mL). Single colony was transferred to a 2 mL LB liquid medium (containing 50 μg/ml kanamycin) and incubated overnight. The bacterial fluid was transferred to a new 100 ml LB liquid medium with antibiotics and incubated at 37° C. and 250 r/min until OD600 reached 0.5-0.6. The culture was cooled down to 16° C. in a water bath. Then inducer IPTG was added at a final concentration of 0.1 mM. The mixture was cultured at 16° C. for low temperature induction and 180 r/min for 20 h. The BL21(DE3) recombinant strain carrying the pET28a empty plasmid was used as a blank control, and the culture operation was the same as above. The bacteria were harvested by centrifugation (6000 r/min, 5 min), re-suspended in 1 mL of lysis buffer Buffer A (20 mM Tris-HCl, pH 8.0; 100 mM NaCl), and DNase was added to a final concentration of 5 μg/mL, Mg^2+ to a final concentration of 2 mM; protease inhibitor PMSF to a final concentration of 1 mM; the bacteria were incubated on ice for 30 min and then sonicated; refrigerated centrifugation (10,000 rpm, 30 min, 4° C.), filtered through a 0.2 µm filter membrane to obtain the supernatant crude enzyme solution, and added 20% glycerol for cryopreservation (−20° C.).
(§1) The in vitro enzyme catalytic assay system is 100 μL. The reaction system includes: 0.1 mM glycosyl receptor (phloretin or 2-hydroxynaringenin), 0.3 mM UDP glucose, 25 μL supernatant crude enzyme solution, and Buffer A is used to make up the volume to 100 μL, and react at 37° C. for 2 h. After the reaction was completed, an equal volume of methanol was added to terminate the reaction, and HPLC was used for product analysis. HPLC detection conditions: chromatographic column: reverse phase C18 column [SilGreen ODS column (ø 4.6×250 mm)], detection wavelength 280 nm; mobile phase: acetonitrile (0.1% formic acid)-water (0.1% formic acid) mixture gradient elution, with increased ratio from 5:95 to 100:0 within 0 to 20 min, and the flow rate was 1 mL/min.

[2] = substrate: O=C1C[C@@](O)(c2ccc(O)cc2)Oc2cc(O)cc(O)c21; assay: in vitro kinetic parameters of C-glycosyltransferase PhCGT1 with 2-hydroxynaringenin (FIG. 5); format: biochemical; conditions: other: PhCGT1; substrate 2-hydroxynaringenin; 37.0 °C
Protocol: as §1
(§2) The Km value is the substrate concentration when the enzymatic reaction presents half of its maximum reaction rate, and the lower the Km value, the higher the enzymatic activity of the C-glycosyltransferase.

[3] = substrate: O=C1C[C@@](O)(c2ccc(O)cc2)Oc2cc(O)cc(O)c21; assay: in vitro kinetic parameters of C-glycosyltransferase PgCGT1 with 2-hydroxynaringenin (FIG. 5); format: biochemical, henon bamboo (Phyllostachys glauca); conditions: other: PgCGT1; substrate 2-hydroxynaringenin; 37.0 °C
Protocol: as §1, §2

Row | Molecule | 5′ C-glycosylation of 3′-glycosylated phloretin giving phloretin-3′,5′-C-diglucoside [1] | conversion of substrate phloretin to C-glycosylated product (Nothofagin) [1] | Km [2] | Km [3]
1 | TaCGT1-A: C-glycosyltransferase from wheat, SEQ ID NO: 8 (protein, listed as Triticum aestivum) MPTSGDGPTSQPHVVLLPSAGMGHLVPFSRLAVALSSAHGCDVSLVTVLPTVSSAESSHLEALFGAFPAVRRLEFHLADFDASEFPNADPFFLRFEAMRRSAPLLLGPLLARASATALVTDIALSSVVIPVAKQLRLPCYVLFTASAAMLSLCVHFPAYLDANGNGLVGDVDIPGVYQIPKASVPQALHDPKHLFTRQFVANGRELAKSDGVLVNSFDAFEPEAIAALREGAVSAAGFFPPVFSVGPLAPVSFPAGNNNRADYIQWLEAQPARSVVYVSFGSRKAVARDQLRELAAGLEASGHRFLWVVKSTVVDRDDDADLGELLGEGFLERVQGRGMVTKGWVEQEDVLKQESVGLFISHCGWNSVTEAAAGGLPVLAWPRFGDQRVNAGVVARSGLGVWVDSWSWEGEEGVVSGESIAEKVKAVMGDEIARNKAVSVRDAAAKAVADGGTSYRNLARFAQRCRDGRVRE | can catalyze the glycosylation of the 3′-glycosylated phloretin at the 5′ position | can convert the substrate phloretin to a product having a shorter retention time |  | 
2 | Phyllostachys edulis (moso bamboo) C-glycosyltransferase PhCGT1, SEQ ID NO: 1 (Phyllostachys edulis) (protein, pET28a (pCZ86), E. coli BL21(DE3) in fermentation; A1 assay uses crude enzyme supernatant) MPTSGGRTGDRPHVILLPSAGMGHLVPFSRLAVALSSGHGCDVSVVAVLPTVSAAESRHLQGLLDASPAVRRLDLHLAPFDESEFPGADPFFLRFEAMRRSAPLLGPLLADTGASALVTDIALASVVIPVAKEIHLPCYVLFTASAAMLSFCAYFPTYLDTNAGRVVGDVDIPGVYRIPKASIPQALHDPNHLFTRQFVANGQDLAKADGVLVNTFDALELEAVTALRQGSVAAGFPPVFSVGPLVTVNLPAGEAAKESGNDYMYWLDAQPAQSVVYVSFGSRKAISRDQVRELAIGLEASGQPFLWVVKSTVVDRDDSAELSELLGEGFLERVQGQGFVTKAWVEQEEVLKHESIGLFISHCGWNSVTEAAASGVPVLAWPRFGDQRVNAGVVARGGLGVWVERWSWEGEEDVVSGEEIAEKVKAVMADETVRKKAASVGEAAVKEFADGGTSYRSLTEFVRRCRDLAVLD |  | can convert the substrate phloretin to a product having a shorter retention time | 1.75 ± 0.66 µM | 
3 | Phyllostachys glauca (henon bamboo) C-glycosyltransferase PgCGT1, SEQ ID NO: 2 (Phyllostachys glauca) (protein, A1 assay uses crude enzyme supernatant) MPTSGSRTGGRPHVILLPSAGMGHLVPFSRLAVALSSGHGCDVSVVAVLPTVSAAESRHLQGLLDASPAVRRLDLHLAPFDESEFPGADPFFLRFEAMRRSAPLLGPLLADTGASALVTDIALASVVIPVAKEIHLPCYVLFTASAAMLSFCAYFPTYLDTNAGRVVGDVDIPGVYRIPKASIPQALHDPNHLFTRQFVANGQDLAKADGVLVNTFDALELEAVTALRQGSVAAGFPPVFSVGPLVTVNLPAGEAAKESGNDYMYWLDAQPARSVVYVSFGSRKAISRNQVRELAVGLEASGQRFLWVVKSTVVDRDDSAELSELLDEGFLERVQGRGLVTKAWVEQEEVLKHESIGLFISHCGWNSVTEAAASGVPVLAWPRFGDQRVNAGVVARGGLGVWVERWSWEGEEGVVSGEEIAEKVKAVMADETVRKKAASVGEAAVKEFADGGTSYRSLTEFVRRCRDLAVLD |  | can convert the substrate phloretin to a product having a shorter retention time |  | 2.75 ± 0.75 µM
4 | TaCGT1-B: C-glycosyltransferase from wheat, SEQ ID NO: 9 (protein, listed as Triticum aestivum) MPTSGDGSGALPHVVLLPSAGMGHLVPFSRLAVSFSSSDHGCGVSVVTVLPTVSSAESAHLDALFGACPAVRRLDFHLARFDASEFPGADPFFLRFEAMRRSAPLLGPLLAGAGASALVTDIALASVVIPVARELRLPCYVLFTASAAMLSLCVHFPAYLDANAGGPVGDVDIPGVYRVPKASIPQALHHPEHLFTRQFVANGRELAKSDGLLVNSFDEFEPEAISALRDGSVAAGFPPVFSVGPLAPVSFSAGEPPENQADYMRWLEAQPTRSVVYVSFGSRKAISKDQLKELAVGLEASGHRFLWVVKSTVVDREDEAELSELLGEGFLERVHGRGMVTKGWVEQEEVLKQESIGLFISHCGWNSVTEAAANGLPVLAWPRFGDQRVNAGVVARSGLGVWEERWSWEGEEGVVSGENIAEKVKAVMADETVRNKAVSVQDAAAKAVADGGTSYRSLAQFVQRCRDLSVSK |  | can convert the substrate phloretin to a product having a shorter retention time |  | 
